The conditions of the data set: ubiquitination at K213.

The record followed here is article PMC10599278.

For IGF2BP3: K213R, the other result was “decreases”.
